Reference: paper PMC9082959, “Mechanism of Assembly of the Non-Covalent Spectrin Tetramerization Domain from Intrinsically Disordered Partners” (Journal of molecular biology, 2013)
Numbering of substitutions follows the chain as printed.

Assays:
Assay in all cases: ITC; β16β17 at 25–50 μM in the cell titrated with 15–20 injections to 2–2.5 eq of α0α1; one-site binding model; PBS (50 mM sodium phosphate, 150 mM NaCl, pH 7.04), 25 °C; mutants only against the wild-type partner
Conditions in all cases: both partners purified
[1] = target: T1, β16β17 (erythrocyte β-spectrin residues 1898–2083), wild type (human, UniProt P11277 1898-2083)
T1 construct: erythrocyte β-spectrin, human, residues 1898-2083 (β16 plus the incomplete 17th domain); synthetic gene (GenScript) in a modified pRSETA plasmid; source: E. coli C41(DE3), purified (Ni2+ agarose, thrombin cleavage, gel filtration)
T1 sequence (looked up): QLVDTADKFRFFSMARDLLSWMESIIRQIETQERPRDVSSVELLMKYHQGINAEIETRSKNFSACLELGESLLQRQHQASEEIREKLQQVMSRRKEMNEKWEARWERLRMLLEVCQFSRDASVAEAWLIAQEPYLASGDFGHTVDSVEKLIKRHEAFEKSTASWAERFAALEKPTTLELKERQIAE

β16β17 A15G = target: T2, β16β17 A15G (human, UniProt P11277 1898-2083, A2018G)
T2 construct: erythrocyte β-spectrin, human, residues 1898-2083 (β16β17); mutant of m2; also called A2018G; source: E. coli C41(DE3), purified (Ni2+ agarose, thrombin cleavage, gel filtration)
T2 sequence (looked up): T1 sequence (looked up) with A121G

β16β17 E19A = target: T3, β16β17 E19A (human, UniProt P11277 1898-2083, E2022A)
T3 construct: erythrocyte β-spectrin, human, residues 1898-2083 (β16β17); mutant of m2; also called E2022A; source: E. coli C41(DE3), purified (Ni2+ agarose, thrombin cleavage, gel filtration)
T3 sequence (looked up): T1 sequence (looked up) with E125A

β16β17 C9A = target: T4, β16β17 C9A (human, UniProt P11277 1898-2083, C2012A)
T4 construct: erythrocyte β-spectrin, human, residues 1898-2083 (β16β17); mutant of m2; also called C2012A; source: E. coli C41(DE3), purified (Ni2+ agarose, thrombin cleavage, gel filtration)
T4 sequence (looked up): T1 sequence (looked up) with C115A

β16β17 D39A = target: T5, β16β17 D39A (human, UniProt P11277 1898-2083, D2042A)
T5 construct: erythrocyte β-spectrin, human, residues 1898-2083 (β16β17); mutant of m2; also called D2042A; source: E. coli C41(DE3), purified (Ni2+ agarose, thrombin cleavage, gel filtration)
T5 sequence (looked up): T1 sequence (looked up) with D145A

β16β17 D39G = target: T6, β16β17 D39G (human, UniProt P11277 1898-2083, D2042G)
T6 construct: erythrocyte β-spectrin, human, residues 1898-2083 (β16β17); mutant of m2; also called D2042G; source: E. coli C41(DE3), purified (Ni2+ agarose, thrombin cleavage, gel filtration)
T6 sequence (looked up): T1 sequence (looked up) with D145G

Kd [1]: 400 nM
Ka (β16β17 A15G): 6000 M⁻¹
Ka (β16β17 E19A): 93000 M⁻¹
Ka (β16β17 C9A): 2.7e+06 M⁻¹
Ka (β16β17 D39A): 470000 M⁻¹
Ka (β16β17 D39G): 280000 M⁻¹
B1: α0α1 (erythrocyte α-spectrin residues 2–163), wild type (domain or fragment, human, UniProt P02549 2-163, looked up)
chain: EQFPKETVVESSGPKVLETAEEIQERRQEVLTRYQSFKERVAERGQKLEDSYHLQVFKRDADDLGKWIMEKVNILTDKSYEDPTNIQGKYQKHQSLEAEVQTKSRLMSELEKTREERFTMGHSAHEETKAHIEELRHLWDLLLELTLEKGDQLLRALKFQQY
notes: synthetic gene (GenScript) in a modified pRSETA plasmid; also called α1α0; source: E. coli C41(DE3), purified (Ni2+ agarose, thrombin cleavage, gel filtration)
